Reference: the supplement of paper PMC9112550, “Optimization of the antimicrobial peptide Bac7 by deep mutational scanning” (BMC Biology, 2022)

Test system: Escherichia coli TOP10
Assay: shrunken log2 fold change of peptide-encoding DNA abundance (4.5 h post-induction vs induction); higher = less antimicrobial activity (less host growth inhibition)
Details: time post-induction: 4.5 h; library: site-saturation at positions 5, 18, 19, 20
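Further: peptides expressed intracellularly from a pBAD plasmid library in pooled LB shake-flask culture, induced with 0.3% L-arabinose, DNA abundance read by NGS, three biological replicates, DESeq2 with apeglm shrinkage.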

RRIRPRPPRLPRPRPRPEYRPRP
shrunken log2 fold change: 0.0278

RRIRPRPPRLPRPRPRPFAAPRP
shrunken log2 fold change: 0.227

RRIRPRPPRLPRPRPRPFAQPRP
shrunken log2 fold change: -0.0885

RRIRPRPPRLPRPRPRPFCMPRP
shrunken log2 fold change: -0.047

RRIRPRPPRLPRPRPRPFCWPRP
shrunken log2 fold change: 0.447

RRIRPRPPRLPRPRPRPFDHPRP
shrunken log2 fold change: -0.105

RRIRPRPPRLPRPRPRPFFKPRP
shrunken log2 fold change: -0.0682

RRIRPRPPRLPRPRPRPFHAPRP
shrunken log2 fold change: -0.0472

RRIRPRPPRLPRPRPRPFIEPRP
shrunken log2 fold change: -0.245

RRIRPRPPRLPRPRPRPFIQPRP
shrunken log2 fold change: -0.671

RRIRPRPPRLPRPRPRPFKNPRP
shrunken log2 fold change: -0.615

RRIRPRPPRLPRPRPRPFKVPRP
shrunken log2 fold change: -0.0681

RRIRPRPPRLPRPRPRPFMEPRP
shrunken log2 fold change: -0.554

RRIRPRPPRLPRPRPRPFNSPRP
shrunken log2 fold change: -0.764

RRIRPRPPRLPRPRPRPFPRPRP
shrunken log2 fold change: 0.0474

RRIRPRPPRLPRPRPRPFRAPRP
shrunken log2 fold change: 0.116

RRIRPRPPRLPRPRPRPFRCPRP
shrunken log2 fold change: 0.12

RRIRPRPPRLPRPRPRPFRGPRP
shrunken log2 fold change: 0.0377

RRIRPRPPRLPRPRPRPFRLPRP
shrunken log2 fold change: -0.465

RRIRPRPPRLPRPRPRPFRQPRP
shrunken log2 fold change: -0.00634

RRIRPRPPRLPRPRPRPFRWPRP
shrunken log2 fold change: -0.0528

RRIRPRPPRLPRPRPRPFSLPRP
shrunken log2 fold change: -0.365

RRIRPRPPRLPRPRPRPFSTPRP
shrunken log2 fold change: -0.317

RRIRPRPPRLPRPRPRPFTMPRP
shrunken log2 fold change: 1.43

RRIRPRPPRLPRPRPRPFVCPRP
shrunken log2 fold change: -0.395

RRIRPRPPRLPRPRPRPFVDPRP
shrunken log2 fold change: -0.319

RRIRPRPPRLPRPRPRPFWDPRP
shrunken log2 fold change: -0.465

RRIRPRPPRLPRPRPRPFYFPRP
shrunken log2 fold change: -0.387

RRIRPRPPRLPRPRPRPFYIPRP
shrunken log2 fold change: -0.312

RRIRPRPPRLPRPRPRPFYNPRP
shrunken log2 fold change: -0.7

RRIRPRPPRLPRPRPRPGCNPRP
shrunken log2 fold change: -0.124

RRIRPRPPRLPRPRPRPGDIPRP
shrunken log2 fold change: -0.027

RRIRPRPPRLPRPRPRPGDNPRP
shrunken log2 fold change: -0.00764

RRIRPRPPRLPRPRPRPGEIPRP
shrunken log2 fold change: 0.21

RRIRPRPPRLPRPRPRPGFEPRP
shrunken log2 fold change: 0.225

RRIRPRPPRLPRPRPRPGFGPRP
shrunken log2 fold change: 0.752

RRIRPRPPRLPRPRPRPGFRPRP
shrunken log2 fold change: 0.138

RRIRPRPPRLPRPRPRPGHRPRP
shrunken log2 fold change: 0.0675

RRIRPRPPRLPRPRPRPGHWPRP
shrunken log2 fold change: 0.123

RRIRPRPPRLPRPRPRPGIRPRP
shrunken log2 fold change: 0.105

RRIRPRPPRLPRPRPRPGKNPRP
shrunken log2 fold change: -0.00164

RRIRPRPPRLPRPRPRPGKSPRP
shrunken log2 fold change: -0.208

RRIRPRPPRLPRPRPRPGLFPRP
shrunken log2 fold change: 0.162

RRIRPRPPRLPRPRPRPGLKPRP
shrunken log2 fold change: 0.211

RRIRPRPPRLPRPRPRPGNAPRP
shrunken log2 fold change: 0.34

RRIRPRPPRLPRPRPRPGNTPRP
shrunken log2 fold change: -0.241

RRIRPRPPRLPRPRPRPGPPPRP
shrunken log2 fold change: 0.366

RRIRPRPPRLPRPRPRPGPVPRP
shrunken log2 fold change: 0.258

RRIRPRPPRLPRPRPRPGPWPRP
shrunken log2 fold change: 0.0326

RRIRPRPPRLPRPRPRPGQDPRP
shrunken log2 fold change: -0.0902

RRIRPRPPRLPRPRPRPGQEPRP
shrunken log2 fold change: 0.031

RRIRPRPPRLPRPRPRPGQIPRP
shrunken log2 fold change: -0.0497

RRIRPRPPRLPRPRPRPGQKPRP
shrunken log2 fold change: -0.00227

RRIRPRPPRLPRPRPRPGQRPRP
shrunken log2 fold change: 0.44

RRIRPRPPRLPRPRPRPGQSPRP
shrunken log2 fold change: 0.421

RRIRPRPPRLPRPRPRPGRCPRP
shrunken log2 fold change: 0.442

RRIRPRPPRLPRPRPRPGRQPRP
shrunken log2 fold change: 0.742

RRIRPRPPRLPRPRPRPGTDPRP
shrunken log2 fold change: 0.119

RRIRPRPPRLPRPRPRPGVGPRP
shrunken log2 fold change: 0.53

RRIRPRPPRLPRPRPRPGVTPRP
shrunken log2 fold change: -0.227

RRIRPRPPRLPRPRPRPGWGPRP
shrunken log2 fold change: 0.458

RRIRPRPPRLPRPRPRPGWPPRP
shrunken log2 fold change: 0.667

RRIRPRPPRLPRPRPRPGWSPRP
shrunken log2 fold change: 0.0867

RRIRPRPPRLPRPRPRPGWTPRP
shrunken log2 fold change: 0.235

RRIRPRPPRLPRPRPRPGYRPRP
shrunken log2 fold change: -0.051

RRIRPRPPRLPRPRPRPGYTPRP
shrunken log2 fold change: -0.0764

RRIRPRPPRLPRPRPRPHDEPRP
shrunken log2 fold change: -0.0869

RRIRPRPPRLPRPRPRPHEFPRP
shrunken log2 fold change: 0.253

RRIRPRPPRLPRPRPRPHEMPRP
shrunken log2 fold change: -0.142

RRIRPRPPRLPRPRPRPHERPRP
shrunken log2 fold change: 0.198

RRIRPRPPRLPRPRPRPHESPRP
shrunken log2 fold change: 0.0891

RRIRPRPPRLPRPRPRPHFEPRP
shrunken log2 fold change: 0.0605

RRIRPRPPRLPRPRPRPHFTPRP
shrunken log2 fold change: -0.302

RRIRPRPPRLPRPRPRPHGHPRP
shrunken log2 fold change: 0.0412

RRIRPRPPRLPRPRPRPHGNPRP
shrunken log2 fold change: -0.654

RRIRPRPPRLPRPRPRPHGRPRP
shrunken log2 fold change: -0.0223

RRIRPRPPRLPRPRPRPHKHPRP
shrunken log2 fold change: -0.268

RRIRPRPPRLPRPRPRPHNPPRP
shrunken log2 fold change: -0.0801

RRIRPRPPRLPRPRPRPHNYPRP
shrunken log2 fold change: -0.631

RRIRPRPPRLPRPRPRPHSDPRP
shrunken log2 fold change: 0.0137

RRIRPRPPRLPRPRPRPHVEPRP
shrunken log2 fold change: 0.107

RRIRPRPPRLPRPRPRPHWDPRP
shrunken log2 fold change: -0.208

RRIRPRPPRLPRPRPRPHWQPRP
shrunken log2 fold change: 0.358

RRIRPRPPRLPRPRPRPHYMPRP
shrunken log2 fold change: -0.747

RRIRPRPPRLPRPRPRPHYNPRP
shrunken log2 fold change: -0.769

RRIRPRPPRLPRPRPRPIFHPRP
shrunken log2 fold change: -0.0968

RRIRPRPPRLPRPRPRPIFRPRP
shrunken log2 fold change: -0.0135

RRIRPRPPRLPRPRPRPIFSPRP
shrunken log2 fold change: 0.14

RRIRPRPPRLPRPRPRPIGLPRP
shrunken log2 fold change: 0.155

RRIRPRPPRLPRPRPRPIGMPRP
shrunken log2 fold change: -0.232

RRIRPRPPRLPRPRPRPIGNPRP
shrunken log2 fold change: -0.0419

RRIRPRPPRLPRPRPRPIGRPRP
shrunken log2 fold change: -0.0114

RRIRPRPPRLPRPRPRPIGTPRP
shrunken log2 fold change: -0.39

RRIRPRPPRLPRPRPRPIHVPRP
shrunken log2 fold change: -0.351

RRIRPRPPRLPRPRPRPIIMPRP
shrunken log2 fold change: 0.195

RRIRPRPPRLPRPRPRPIKCPRP
shrunken log2 fold change: -0.358

RRIRPRPPRLPRPRPRPIKGPRP
shrunken log2 fold change: 0.0468

RRIRPRPPRLPRPRPRPIMEPRP
shrunken log2 fold change: -0.159

RRIRPRPPRLPRPRPRPIMIPRP
shrunken log2 fold change: -0.169

RRIRPRPPRLPRPRPRPIMRPRP
shrunken log2 fold change: -0.0819

RRIRPRPPRLPRPRPRPIMTPRP
shrunken log2 fold change: 0.0516

RRIRPRPPRLPRPRPRPINKPRP
shrunken log2 fold change: -0.641

RRIRPRPPRLPRPRPRPIPLPRP
shrunken log2 fold change: -0.191

RRIRPRPPRLPRPRPRPIPMPRP
shrunken log2 fold change: -0.0493

RRIRPRPPRLPRPRPRPIPPPRP
shrunken log2 fold change: -0.0888

RRIRPRPPRLPRPRPRPIQNPRP
shrunken log2 fold change: -0.11

RRIRPRPPRLPRPRPRPIQSPRP
shrunken log2 fold change: -0.083

RRIRPRPPRLPRPRPRPIQTPRP
shrunken log2 fold change: -0.0617

RRIRPRPPRLPRPRPRPIQVPRP
shrunken log2 fold change: 0.0596

RRIRPRPPRLPRPRPRPISMPRP
shrunken log2 fold change: -0.0272

RRIRPRPPRLPRPRPRPISYPRP
shrunken log2 fold change: -0.163

RRIRPRPPRLPRPRPRPITCPRP
shrunken log2 fold change: 0.102

RRIRPRPPRLPRPRPRPITVPRP
shrunken log2 fold change: -0.298

RRIRPRPPRLPRPRPRPIVYPRP
shrunken log2 fold change: 0.175

RRIRPRPPRLPRPRPRPIWAPRP
shrunken log2 fold change: 0.384

RRIRPRPPRLPRPRPRPIWLPRP
shrunken log2 fold change: -0.132

RRIRPRPPRLPRPRPRPIWTPRP
shrunken log2 fold change: -0.262

RRIRPRPPRLPRPRPRPKASPRP
shrunken log2 fold change: 0.105

RRIRPRPPRLPRPRPRPKCAPRP
shrunken log2 fold change: 0.0543

RRIRPRPPRLPRPRPRPKCKPRP
shrunken log2 fold change: -0.207

RRIRPRPPRLPRPRPRPKCRPRP
shrunken log2 fold change: 0.00849

RRIRPRPPRLPRPRPRPKDGPRP
shrunken log2 fold change: 0.0462

RRIRPRPPRLPRPRPRPKDNPRP
shrunken log2 fold change: -0.248

RRIRPRPPRLPRPRPRPKFTPRP
shrunken log2 fold change: -0.141

RRIRPRPPRLPRPRPRPKGCPRP
shrunken log2 fold change: 0.394

RRIRPRPPRLPRPRPRPKHMPRP
shrunken log2 fold change: -0.0288

RRIRPRPPRLPRPRPRPKIEPRP
shrunken log2 fold change: 0.0313

RRIRPRPPRLPRPRPRPKIPPRP
shrunken log2 fold change: -0.408

RRIRPRPPRLPRPRPRPKKCPRP
shrunken log2 fold change: -0.352

RRIRPRPPRLPRPRPRPKKNPRP
shrunken log2 fold change: 0.0249

RRIRPRPPRLPRPRPRPKLGPRP
shrunken log2 fold change: 0.551

RRIRPRPPRLPRPRPRPKMIPRP
shrunken log2 fold change: -0.0706

RRIRPRPPRLPRPRPRPKNEPRP
shrunken log2 fold change: -0.119

RRIRPRPPRLPRPRPRPKNWPRP
shrunken log2 fold change: 0.261

RRIRPRPPRLPRPRPRPKQIPRP
shrunken log2 fold change: 0.0957

RRIRPRPPRLPRPRPRPKSFPRP
shrunken log2 fold change: -0.0474

RRIRPRPPRLPRPRPRPKTHPRP
shrunken log2 fold change: -0.0419

RRIRPRPPRLPRPRPRPKTKPRP
shrunken log2 fold change: 0.00358

RRIRPRPPRLPRPRPRPKVWPRP
shrunken log2 fold change: 0.318

RRIRPRPPRLPRPRPRPKYHPRP
shrunken log2 fold change: -0.317

RRIRPRPPRLPRPRPRPLADPRP
shrunken log2 fold change: 0.188

RRIRPRPPRLPRPRPRPLASPRP
shrunken log2 fold change: 0.104

RRIRPRPPRLPRPRPRPLCVPRP
shrunken log2 fold change: -0.214

RRIRPRPPRLPRPRPRPLCYPRP
shrunken log2 fold change: -0.488

RRIRPRPPRLPRPRPRPLFRPRP
shrunken log2 fold change: 0.159

RRIRPRPPRLPRPRPRPLFSPRP
shrunken log2 fold change: -0.103

RRIRPRPPRLPRPRPRPLGIPRP
shrunken log2 fold change: -0.0635

RRIRPRPPRLPRPRPRPLLLPRP
shrunken log2 fold change: -0.208

RRIRPRPPRLPRPRPRPLMIPRP
shrunken log2 fold change: -0.152

RRIRPRPPRLPRPRPRPLMKPRP
shrunken log2 fold change: -0.181
